Molecular target: SARS-CoV-2 S protein S1 (SARS-CoV-2, UniProt P0DTC2 16-685)

B1: monoclonal antibody (mAb) m31A7 (antibody, V domains shown)
VH: EVQLQQSGPEMVKPGASVKISCKTSGYTFTEYTIYWVKQSHGKSLEWLGGINPNIGDTTYNQKFKGKATLTVDTSSSTAYMELRSLTSEDSAVYYCAREVYNYSFAYWGQGTLVTVSA
VL: DIVMSQSPSSLAVSVGEKVTMSCKSSQSLLYSSNQKNYLAWYQQKLGQTPKLLIYWASSRESGVPDRFTGSGSGTDFTLTISSVRAEDLAVYYCQQYYRYPLTFGVGTKLELKR
Work on B1 yielded an EC50 of 0.0235 nM.

Source: patent US20240016917A1 (ACADEMIA SINICA, published 2024)
